Where a chain is given by its changes, count along the chain named. Names may count otherwise.
B1: H266R: CurM TE control mutation in the catalytic triad (protein)
chain: MEEKFLEFGGNQICLCSWGSPEHPVVLCIHGILEQGLAWQEVALPLAAQGYRVVAPDLFGHGRSSHLEMVTSYSSLTFLAQIDRVIQELPDQPLLLVGHSMGAMLATAIASVRPKKIKELILVELPLPAEESKKESAVNQLTTCLDYLSSTPQHPIFPDVATAASRLRQAIPSLSEEFSYILAQRITQPNQGGVRWSWDAIIRTRSILGLNNLPGGRSQYLEMLKSIQVPTTLVYGDSSKLNRPEDLQQQKMTMTQAKRVFLSGGRNLHIDAAAALASLILTS
B2: R205A: CurM TE point mutant R205A (protein)
chain: B1 chain with R205A, R266H
B3: N211A: CurM TE mutant of conserved Asn interacting with R205 (protein)
chain: B1 chain with N211A, R266H
B4: R205Q: CurM TE point mutant R205Q (protein)
chain: B1 chain with R205Q, R266H
B5: N267A: CurM TE mutant of conserved Asn next to the catalytic His (protein)
chain: B1 chain with R266H, N267A
B6: R205E: CurM TE point mutant R205E (protein)
chain: B1 chain with R205E, R266H

Experiments:
Format in all cases: biochemical, Lyngbya majuscula
CurM ST and TE = assay: Coupled ST-TE one-pot reaction (HPLC, LC-MS); conditions: from model substrate (3R)-1-ACP
Procedure: With the order of the ST and TE reactions established for the acyl-ACP intermediate, the next investigation was to couple the two reactions in one pot. […] Under the same reaction conditions, it was discovered that the CurM TE catalyzed hydrolysis reaction with sulfonated product (3R)-2-ACP was about 800-fold faster than with (3R)-1-ACP. Moreover, TE catalyzed hydrolysis of (3R)-2-ACP was about 120-fold faster than (3S)-2-ACP (FIG. 7).
(§1) Next, experiments were performed to assess whether the proposed sulfonated intermediate (3R)-2 (FIG. 3A) is released following hydrolysis of (3R)-2-ACP, or whether formation of 3 (FIG. 3B) occurs directly by a coordinated decarboxylative elimination process. First, the ST-TE coupled reactions with (3R)-1-ACP were analyzed by LC-MS and a single product was confirmed to be (3R)-2 by co-injection with the corresponding authentic standard (FIG. 3A iii). Due to the expected volatility of 3, the contents of the coupled reaction were extracted with hexane and analyzed by GC-MS. A second product was thus detected and confirmed to be 3 by co-injection with the corresponding authentic standard (FIG. 3B iv). […]
(§2) The ST and TE assays were performed using R)-1-ACP and (3S)-1-ACP substrates. […] All the reactions were incubated at room temperature, quenched by addition of 10% formic acid, and analyzed by reverse-phase HPLC using Jupiter C4 column. […]

CurM TE [1] = assay: TE-catalyzed decarboxylative elimination to 3 (GC-MS); conditions: in 1 hour; free authentic (synthetic) substrate
Procedure: as §1, with “First, the ST-TE coupled reactions with (3R)-1-ACP were analyzed by LC-MS and a single product was confirmed to be (3R)-2 by co-injection with the corresponding authentic standard (FIG. 3A iii).” left out
as §2, with “column. The ACP fractions were collected, lyophilized and analyzed by FTICR-MS and IRMPD.” for “column.”
The samples and authentic standard were analyzed by a 6890N gas chromatograph equipped with a 5973 mass selective quadrupole detector (Agilent). […] Total ion chromatograms were recorded using a mass range of 60-420 amu, and the selective ion chromatograms were recorded by monitoring the two to three most abundant masses plus the parent masses of target compounds.

CurM TE [2] = assay: Steady-state kinetic analysis of TE hydrolysis using CoA-linked substrates; conditions: steady-state kinetics
Procedure: (3S)-1-ACP and (3R)-1-ACP were prepared as the TE substrates to test its stereoselectivity for the β-hydroxyl group. The reactions were analyzed by reverse-phase HPLC, and the separated ACP fractions were examined by Fourier transform ion cyclotron resonance mass spectrometry (FTICR-MS) and infrared multiphoton dissociation (IRMPD) (16) techniques. In addition, the chain-release products were detected by LC-MS and confirmed by co-injection with authentic standards. […] However, TE-catalyzed hydrolysis of (3S)-1-ACP was about 5-fold faster than with (3R)-1-ACP (FIG. 5A). […] However, based on bioinformatic analysis of PKS ketoreductase (KR) sequences (17), the CurM KR was predicted to reduce the β-keto to a (R)-β-hydroxyl group in the full-length chain intermediate.
HPLC-based analyses of the TE hydrolysis were performed using XBridge C18 column (4.6×250 mm, 5 μm, Waters) on the Gold HPLC system equipped with an autosampler and controlled by 32 Karat software (Beckman Coulter). Samples were eluted with a linear gradient from 10% to 90% of MeOH/H2O (10 mM CH3CO2NH4). For steady state kinetic studies. TE hydrolysis was examined in 40 μl 50 mM Tris-HCl buffer (pH 7.0) with 100 μM, 200 μM, 500 μM, 1000 μM and 2000 μM (3R)-1-CoA or (3S)-1-CoA. […] The TE hydrolysis reaction was measured by consumption of CoA substrates. […]

CurM ST = assay: ST sulfonation of free acid and ACP-linked substrates (LC-MS, HPLC, FTICR-MS); conditions: in the presence of ST and PAPS
Procedure: Based on the known mechanism of ST enzyme function, CurM ST was predicted to bind to PAPS, and transfer a sulfonate moiety to the β-hydroxyl group of the intermediate tethered to or released from CurM ACP (FIG. 1B). First, the ST substrate was identified by testing the sulfonation of 1 and 1-ACP. The sulfonation of 1 was analyzed by LC-MS, and that of 1-ACP was examined by HPLC and FTICR-MS. […] Likewise, the stereoselectivity of ST for the β-hydroxyl group was determined by comparing the sulfonation efficiency of (3S)-1-ACP and (3R)-1-ACP. Under the same reaction condition, ST sulfonation with (3R)-1-ACP was about 2.5-fold faster than with (3S)-1-ACP (FIG. 6). Thus, CurM ST stereoselectivity is consistent with the predicted formation of a (R)-β-hydroxyl group by CurM KR.
The ST and TE assays were performed using R)-1-ACP and (3S)-1-ACP substrates. Typically, for the ST reactions, about 300 μM ACP-linked substrate was added with 2 μM ST and 2 mM PAPS in 50 mM Tris-HCl buffer (pH 7.0). For the TE reactions, about 300 μM ACP-linked substrate was added with 2 μM TE in 50 mM Tris-HCl buffer (pH 7.0). All the reactions were incubated at room temperature, quenched by addition of 10% formic acid, and analyzed by reverse-phase HPLC using Jupiter C4 column. The ACP fractions were collected, lyophilized and analyzed by FTICR-MS and IRMPD. […]

[3] = test system: ACP with the sulfated substrate; assay: TE point mutant activity assay (liberation of holo ACP, HPLC); conditions: for Activity compared to wild type: 1 min; for % Activity: relative to wild type CurM TE and free hydrolysis without enzyme, quenched after 1 min
Procedure: The activity of these mutants was tested using the same assay described previously (28). A one-pot reaction was used where CurM ACP was loaded with a synthesized substrate mimic (FIG. 1B) using Svp, after which CurM ST sulfates the β-hydroxyl. Lastly, CurM TE was added and the reaction is quenched after 1 minute. The liberation of holo ACP was detected by a shift on the HPLC. The ratio of holo ACP to ACP with the sulfated substrate was measured. Mutant activity was compared to the activity of wild type CurM TE and free hydrolysis without enzyme in order to obtain percent activity for the mutants (Table 3).
TE activity was assayed using a modification of the protocol developed by Gu et. al. (28). To generate the sulfated substrate for the TE assay, 225 μM loaded ACP was incubated with 5 μM ST, 1.75 mM PAPS (Sigma), in 100 mM Tris pH 7.9 at room temperature for 10 min. Four μM TE was then added to the mixture and the reaction was quenched with 10% formic acid after 1 min. The samples were analyzed by reverse phase HPLC using a Jupiter C4 column (250×2.0 mm, 5 μm, 300 Å, Phenomenex) and a linear elution gradient from 30% to 90% CH3CN (0.1% CF3CO2H)/H2O (0.1% CF3CO2H) over 45 min.

| Molecule | Activity compared to wild type [3] | % Activity [3] | other results |
| --- | --- | --- | --- |
| CCCCCCCCCC(C[C@H](CC(=O)O)OS(=O)(=O)O)OC (mixture of isomers) [(3R)-2, (3R,5RS)-3-Sulfonatooxy-5-methoxytetradecanoic acid] | – | – | Level of (3R)-2 as a product of the TE reaction (CurM ST and TE): greater than 50%; Conversion to 3 by TE (CurM TE [1]): about 2 % conversion |
| CCCCCCCCCC(C[C@H](O)CC(=O)O)OC (mixture of isomers) [(3S)-1, (3S,5RS)-3-Hydroxy-5-methoxytetradecanoic acid] | – | – | Substrate preference of TE (CurM TE [2]): preferred substrate |
| CCCCCCCCCC(CC(O)CC(=O)O)OC (stereo not shown) [compound 1] | – | – | Substrate conversion by ST (CurM ST): No substrate conversion |
| B1 | 1 % of WT | 1.4 ± 0.2% | – |
| B2 | – | 6.1 ± 3.1% | – |
| B3 | catalytic activity, but at a reduced rate | 54.7 ± 1.8% | – |
| B4 | – | 1.8 ± 0.3% | – |
| B5 | catalytic activity, but at a reduced rate | 38.4 ± 3.1% | – |
| B6 | – | 2.3 ± 2.1% | – |

Reference: US8765431B2, “Method for enzymatic production of decarboxylated polyketides and fatty acids” (The Regents of the University of Michigan, priority 2009, dated 2014)
